Assay [1] concerns the target T1, His6-Smt3-Parkin (full-length human parkin, tag kept, labelled with RED-tris-NTA) (human, UniProt O60260 1-465, RED-tris-NTA dye bound to the His tag (Monolith His-Tag Labelling Kit RED-tris-NTA 2nd Generation)).
T1 construct: human parkin, full-length; Used for MST only; source: E. coli BL21(DE3), purified; not shown: His6, N-terminal, kept; Smt3, N-terminal, kept
The experiment in a line: MST; His6-Smt3-Parkin constructs labelled with RED-tris-NTA; unlabelled partner in up to 16 1:1 serial dilutions (from 50 µM for Miro1^181-579); 25°C; PBS-T (PBS 1x, 0.05% Tween 20); 1:1 fit. To be noted: both partners purified.

The target of assay [2] is T2, human parkin, full-length, affinity tag cleaved (human, UniProt O60260 1-465).
T2 construct: human parkin (RBR E3 ubiquitin ligase), full-length; the MST used the uncleaved His6-Smt3 form; also called unphosphorylated parkin; source: E. coli BL21(DE3), purified (Ni-NTA HisTrap FF, Ulp1 cleavage, gel filtration); not shown: His6, N-terminal, cleaved; Smt3, N-terminal, cleaved
The experiment in a line: MST + ITC; parkin with CISD1 (Supplementary Fig. S2); the text names 'either MST or ITC' and does not tell which was used for CISD1. To be noted: both partners purified.

A value given as a limit tells only on which side of the number the result lay.

A word on the Kd: it is the equilibrium constant for the complex coming apart.

T1 sequence (O60260 whole entry): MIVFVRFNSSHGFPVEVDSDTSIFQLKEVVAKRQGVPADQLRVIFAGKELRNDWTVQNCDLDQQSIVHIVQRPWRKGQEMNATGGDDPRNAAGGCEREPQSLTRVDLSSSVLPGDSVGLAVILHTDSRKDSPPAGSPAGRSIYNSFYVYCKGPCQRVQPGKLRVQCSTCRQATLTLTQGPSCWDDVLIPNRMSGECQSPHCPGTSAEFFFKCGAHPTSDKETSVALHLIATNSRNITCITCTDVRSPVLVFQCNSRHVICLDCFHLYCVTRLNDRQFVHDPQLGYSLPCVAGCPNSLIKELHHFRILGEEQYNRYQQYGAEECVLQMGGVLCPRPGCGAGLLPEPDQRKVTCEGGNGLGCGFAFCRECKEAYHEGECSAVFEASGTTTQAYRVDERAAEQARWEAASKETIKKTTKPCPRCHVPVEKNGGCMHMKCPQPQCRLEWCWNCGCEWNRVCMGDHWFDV
T2 sequence (O60260 whole entry): as above

B1: Miro1^181-579 (near full-length, soluble construct of Miro1 that lacks only its GTPase1 domain) (domain or fragment, human, UniProt Q8IXI2 181-579, looked up)
chain: MKPACIKALTRIFKISDQDNDGTLNDAELNFFQRICFNTPLAPQALEDVKNVVRKHISDGVADSGLTLKGFLFLHTLFIQRGRHETTWTVLRRFGYDDDLDLTPEYLFPLLKIPPDCTTELNHHAYLFLQSTFDKHDLDRDCALSPDELKDLFKVFPYIPWGPDVNNTVCTNERGWITYQGFLSQWTLTTYLDVQRCLEYLGYLGYSILTEQESQASAVTVTRDKKIDLQKKQTQRNVFRCNVIGVKNCGKSGVLQALLGRNLMRQKKIREDHKSYYAINTVYVYGQEKYLLLHDISESEFLTEAEIICDVVCLVYDVSNPKSFEYCARIFKQHFMDSRIPCLIVAAKSDLHEVKQEYSISPTDFCRKHKMPPPQAFTCNTADAPSKDIFVKLTTMAMY
notes: source: E. coli BL21(DE3); purified as previously described by Kumar et al. [11]
B1 yielded a dissociation constant (Kd) in assay [1] of more than 100 µM.

B2: human CISD1 (residues 32-108), entire extramembranous portion (domain or fragment, UniProt Q9NZ45 32-108, looked up)
chain: KRFYVKDHRNKAMINLHIQKDNPKIVHAFDMEDLGDKAVYCRCWRSKKFPFCDGAHTKHNEETGDNVGPLIIKKKET
notes: human CISD1 (MitoNEET) lacking only its transmembrane domain, residues 32-108; also called MitoNEET; source: E. coli BL21(DE3) with FeCl3 in the media, purified (Ni-NTA, TEV cleavage, gel filtration); not shown: His6, N-terminal, cleaved
For B2, the Kd in assay [2] is more than 100 µM.

Values taken from paper PMC9022993, “Distinct phosphorylation signals drive acceptor versus free ubiquitin chain targeting by parkin” (Biochemical Journal, 2022).
